± gives the standard deviation of the averaged measurements.
test system: Saccharomyces cerevisiae; test: protein stability index of tFT-peptide fusion (C-terminal peptide) (PSI (0-1 scale)); higher = more stable (slower turnover); conditions: genetic background: cdc34-1; temperature: 37 C
Experimental: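 MPS profiling in S. cerevisiae of the tFT-X12 degron library: putative degron peptides plus stable controls, 12 aa, fused to the C-terminus of a sfGFP-mCherry timer. Cells are FACS-sorted into 8 mCherry/sfGFP bins and deep-sequenced. PSI runs from 0 (unstable) to 1 (stable). Backgrounds are wild type, das1Δ and doa10Δ at 30 °C, and wild type, das1Δ, cdc34-1 and cdc53-1 at 37 °C; 2-3 technical replicates each.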
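Also: PSI is a weighted mean of sequencing reads over stability bins, variants kept only with over 10 reads, mCherry proximal and sfGFP distal, peptide attached via GGGS linker.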

Going from KYCPCIPLLIAL to LAVRSGFPFGLF, the protein stability index rises from 0.406 ± 0.0064 to 0.642 ± 0.034.

Compared with LCLLHCSICISF, LCLLIHFWISHL is lower in protein stability index: 0.352 ± 0.026 for the first, 0.302 ± 0.0069 for the second.

Going from LCVFFRCFFVGG to LCWRLCRFWWVG, the protein stability index rises from 0.529 ± 0.046 to 0.75 ± 0.068.

Compared with LDHGRVVWVVVS, LDRLTTWTLIVR is higher in protein stability index: 0.371 ± 0.036 for the first, 0.457 ± 0.031 for the second.

First: LERLHSVLLLTS
Second: LFFLPPCYWFLL
The protein stability index of the first is lower: 0.246 ± 0.0054 for the first, 0.665 ± 0.023 for the second.

Compared with LFFWWVAVVFRV, LFLVFIGLFFLT is higher in protein stability index: 0.0928 ± 0.025 for the first, 0.348 ± 0.011 for the second.

Going from LFRFSRLFLFVL to LFRRMWVEIFYV, the protein stability index rises from 0.36 ± 0.034 to 0.439 ± 0.044.

First: LGKSTLYMALNN
Second: LGVLVVCFNATY
The protein stability index of the first is higher: 0.587 ± 0.057 for the first, 0.24 ± 0.0032 for the second.

Compared with LHLTFRLAVLYY, LIIVFGFTSILR is higher in protein stability index: 0.3205 ± 0.002 for the first, 0.441 ± 0.02 for the second.

First: LIPFPGFFILLT
Second: LISRGNRALFCI
The protein stability index of the first is lower: 0.244 ± 0.021 for the first, 0.678 ± 0.044 for the second.

LLAREILVIVAV and LLCLAVVLWFVV are within error of each other in protein stability index: 0.181 ± 0.0035 for the first, 0.216 ± 0.035 for the second.

First: LLCSPPPLTVPA
Second: LLFVLWLSFFVL
The protein stability index of the first is higher: 0.394 ± 0.044 for the first, 0.3135 ± 0.0016 for the second.

Compared with LLGDFAVLTCVF, LLGGFAAFWRIL is higher in protein stability index: 0.468 ± 0.049 for the first, 0.631 ± 0.061 for the second.

LLLFLHILRYVF and LLLFLHSTLTCR are within error of each other in protein stability index: 0.541 ± 0.026 for the first, 0.474 ± 0.056 for the second.

Going from LLLLASLFFRLA to LLLPVFLVFSVS, the protein stability index falls from 0.522 ± 0.023 to 0.295 ± 0.046.

LLLSLLVLRFFL and LLMPLLLHSLVW are within error of each other in protein stability index: 0.37 ± 0.043 for the first, 0.354 ± 0.021 for the second.

LLPSNFLLLVGV and LMIVSVRLLFFL are within error of each other in protein stability index: 0.219 ± 0.051 for the first, 0.229 ± 0.049 for the second.

Going from LPAICFWCVLVG to LPNLPPTSPERH, the protein stability index rises from 0.0778 ± 0.014 to 0.638 ± 0.0034.

Going from LPPSPPCQSPAL to LPPYPPPVPILI, the protein stability index falls from 0.667 ± 0.021 to 0.449 ± 0.0069.

Compared with LPSLRPPPCIRA, LQYSKALAVICG is lower in protein stability index: 0.4441 ± 0.002 for the first, 0.218 ± 0.034 for the second.

First: LRALGPRIYRIS
Second: LRLFIFLLFSVF
The protein stability index of the first is higher: 0.661 ± 0.076 for the first, 0.246 ± 0.025 for the second.

Going from LSFFFWFIFSLC to LSLFCFFLLVLF, the protein stability index falls from 0.475 ± 0.013 to 0.203 ± 0.025.

Compared with LSPLPSPLILVV, LSRELRFVGFYH is higher in protein stability index: 0.116 ± 0.08 for the first, 0.637 ± 0.07 for the second.

LSRLWVVGWVVA and LSSIIRFLIFCL are within error of each other in protein stability index: 0.453 ± 0.019 for the first, 0.496 ± 0.024 for the second.

Compared with LTIYPLTYCFVS, LVDSRIVWLFVS is lower in protein stability index: 0.629 ± 0.051 for the first, 0.325 ± 0.095 for the second.

Going from LVFFAYLIRGAL to LVGLESCGERAG, the protein stability index rises from 0.344 ± 0.0086 to 0.655 ± 0.00071.

Compared with LVHLVLYVAVFC, LVLLRLSSLTIF is higher in protein stability index: 0.317 ± 0.043 for the first, 0.627 ± 0.01 for the second.

Going from LVVFLRFFLRVL to LVVGCFLTFCFG, the protein stability index rises from 0.105 ± 0.0097 to 0.241 ± 0.013.

First: LWFGAWWLGAVG
Second: LWGVGRQRNIAS
The protein stability index of the first is lower: 0.318 ± 0.031 for the first, 0.684 ± 0.033 for the second.

First: LWRRSLLLLRCC
Second: LWYVQILNIVLN
The protein stability index of the first is lower: 0.0526 ± 0.0063 for the first, 0.31 ± 0.018 for the second.

Compared with LYLEAYFCIFHF, MALAVRVVVCGA is lower in protein stability index: 0.356 ± 0.052 for the first, 0.0333 ± 0.0083 for the second.

Compared with MAMMQTILIIIH, MDLVSEYKIKVN is higher in protein stability index: 0.0295 ± 0.01 for the first, 0.62 ± 0.026 for the second.

MFRSEVSWKLCC and MSCILFCCLVPF are within error of each other in protein stability index: 0.619 ± 0.071 for the first, 0.545 ± 0.039 for the second.

First: NASWAFLCYFCV
Second: NMRYRATIEACA
The protein stability index of the first is higher: 0.646 ± 0.03 for the first, 0.258 ± 0.043 for the second.

Going from NTYKICVVSVTS to NYVFRIIIVLDA, the protein stability index falls from 0.449 ± 0.014 to 0.269 ± 0.01.

Going from PALYLSLWFLFP to PAVRRLTGLMLM, the protein stability index rises from 0.534 ± 0.056 to 0.6812 ± 0.0047.

First: PCNVLWYSLFLF
Second: PFAGRLWVTSSF
The protein stability index of the first is lower: 0.487 ± 0.015 for the first, 0.707 ± 0.052 for the second.

Going from PFYQSGGLVVVV to PGHICVPVLGTA, the protein stability index falls from 0.58 ± 0.024 to 0.453 ± 0.021.

Going from PGSIGVVIAVRS to PGVWVVILRWWV, the protein stability index falls from 0.461 ± 0.019 to 0.0876 ± 0.044.

same assay, conditions: genetic background: cdc53-1; temperature: 37 C

First: KYCPCIPLLIAL
Second: LAVRSGFPFGLF
The protein stability index of the first is lower: 0.381 ± 0.012 for the first, 0.757 ± 0.013 for the second.

First: LCLLHCSICISF
Second: LCLLIHFWISHL
The protein stability index of the first is lower: 0.4113 ± 0.0012 for the first, 0.44 ± 0.009 for the second.

Going from LCVFFRCFFVGG to LCWRLCRFWWVG, the protein stability index rises from 0.588 ± 0.022 to 0.8494 ± 0.0062.

LDHGRVVWVVVS and LDRLTTWTLIVR are within error of each other in protein stability index: 0.43 ± 0.021 for the first, 0.455 ± 0.011 for the second.

Compared with LERLHSVLLLTS, LFFLPPCYWFLL is higher in protein stability index: 0.254 ± 0.0079 for the first, 0.773 ± 0.024 for the second.

Going from LFFWWVAVVFRV to LFLVFIGLFFLT, the protein stability index rises from 0.0916 ± 0.006 to 0.429 ± 0.035.

LFRFSRLFLFVL and LFRRMWVEIFYV are within error of each other in protein stability index: 0.446 ± 0.11 for the first, 0.541 ± 0.043 for the second.

Going from LGKSTLYMALNN to LGVLVVCFNATY, the protein stability index falls from 0.716 ± 0.036 to 0.343 ± 0.0057.

First: LHLTFRLAVLYY
Second: LIIVFGFTSILR
The protein stability index of the first is lower: 0.355 ± 0.0097 for the first, 0.572 ± 0.018 for the second.

Compared with LIPFPGFFILLT, LISRGNRALFCI is higher in protein stability index: 0.13 ± 0.0096 for the first, 0.739 ± 0.013 for the second.

First: LLAREILVIVAV
Second: LLCLAVVLWFVV
The protein stability index of the first is lower: 0.229 ± 0.017 for the first, 0.338 ± 0.019 for the second.

LLCSPPPLTVPA and LLFVLWLSFFVL are within error of each other in protein stability index: 0.4424 ± 0.00065 for the first, 0.384 ± 0.074 for the second.

Going from LLGDFAVLTCVF to LLGGFAAFWRIL, the protein stability index rises from 0.496 ± 0.039 to 0.713 ± 0.0012.

LLLFLHILRYVF and LLLFLHSTLTCR are within error of each other in protein stability index: 0.551 ± 0.015 for the first, 0.543 ± 0.01 for the second.

Going from LLLLASLFFRLA to LLLPVFLVFSVS, the protein stability index falls from 0.595 ± 0.01 to 0.417 ± 0.005.

Going from LLLSLLVLRFFL to LLMPLLLHSLVW, the protein stability index rises from 0.309 ± 0.007 to 0.396 ± 0.012.

Compared with LLPSNFLLLVGV, LMIVSVRLLFFL is higher in protein stability index: 0.204 ± 0.011 for the first, 0.39 ± 0.0024 for the second.

Going from LPAICFWCVLVG to LPNLPPTSPERH, the protein stability index rises from 0.136 ± 0.00061 to 0.734 ± 0.015.

Compared with LPPSPPCQSPAL, LPPYPPPVPILI is lower in protein stability index: 0.716 ± 0.012 for the first, 0.455 ± 0.021 for the second.

Going from LPSLRPPPCIRA to LQYSKALAVICG, the protein stability index falls from 0.473 ± 0.013 to 0.264 ± 0.027.

Compared with LRALGPRIYRIS, LRLFIFLLFSVF is lower in protein stability index: 0.747 ± 0.025 for the first, 0.282 ± 0.023 for the second.

Compared with LSFFFWFIFSLC, LSLFCFFLLVLF is lower in protein stability index: 0.492 ± 0.053 for the first, 0.224 ± 0.021 for the second.

First: LSPLPSPLILVV
Second: LSRELRFVGFYH
The protein stability index of the first is lower: 0.16 ± 0.021 for the first, 0.751 ± 0.019 for the second.

Going from LSRLWVVGWVVA to LSSIIRFLIFCL, the protein stability index rises from 0.472 ± 0.028 to 0.532 ± 0.015.

Compared with LTIYPLTYCFVS, LVDSRIVWLFVS is lower in protein stability index: 0.704 ± 0.046 for the first, 0.584 ± 0.034 for the second.

Compared with LVFFAYLIRGAL, LVGLESCGERAG is higher in protein stability index: 0.462 ± 0.011 for the first, 0.7436 ± 0.0018 for the second.

Going from LVHLVLYVAVFC to LVLLRLSSLTIF, the protein stability index rises from 0.4112 ± 0.0015 to 0.699 ± 0.0095.

First: LVVFLRFFLRVL
Second: LVVGCFLTFCFG
The protein stability index of the first is lower: 0.106 ± 0.002 for the first, 0.366 ± 0.012 for the second.

Compared with LWFGAWWLGAVG, LWGVGRQRNIAS is higher in protein stability index: 0.361 ± 0.0043 for the first, 0.758 ± 0.015 for the second.

First: LWRRSLLLLRCC
Second: LWYVQILNIVLN
The protein stability index of the first is lower: 0.0759 ± 0.04 for the first, 0.388 ± 0.019 for the second.

Compared with LYLEAYFCIFHF, MALAVRVVVCGA is lower in protein stability index: 0.449 ± 0.0069 for the first, 0.0649 ± 0.022 for the second.

Going from MAMMQTILIIIH to MDLVSEYKIKVN, the protein stability index rises from 0.158 ± 0.14 to 0.712 ± 0.053.

Going from MFRSEVSWKLCC to MSCILFCCLVPF, the protein stability index falls from 0.727 ± 0.015 to 0.57 ± 0.034.

Going from NASWAFLCYFCV to NMRYRATIEACA, the protein stability index falls from 0.69 ± 0.013 to 0.319 ± 0.0071.

Compared with NTYKICVVSVTS, NYVFRIIIVLDA is lower in protein stability index: 0.552 ± 0.021 for the first, 0.408 ± 0.11 for the second.

Compared with PALYLSLWFLFP, PAVRRLTGLMLM is higher in protein stability index: 0.606 ± 0.023 for the first, 0.7493 ± 0.0057 for the second.

Going from PCNVLWYSLFLF to PFAGRLWVTSSF, the protein stability index rises from 0.597 ± 0.025 to 0.7726 ± 0.005.

First: PFYQSGGLVVVV
Second: PGHICVPVLGTA
The protein stability index of the first is higher: 0.63 ± 0.017 for the first, 0.467 ± 0.0061 for the second.

Going from PGSIGVVIAVRS to PGVWVVILRWWV, the protein stability index falls from 0.512 ± 0.013 to 0.179 ± 0.011.
